Reference: the supplement of paper PMC7125110
± gives the standard error. For some assays here: This sample holds only a part of the variants without activity.

B1: glmS ribozyme (parent)
chain: AUAAAAGCGCCAGAACUACAGAAAUGUAGUUGACGAGGAGGAGGUUUAUCGAAUUUUCGGCGGAUGCCUCCAAA

Columns and labels:
Details in all cases: with glucosamine-6-phosphate
glucosamine-6-phosphate [1] = variants of: B1; assay: kcat; higher = faster cleavage; RNA array
Method in brief: (§1)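 Barcoded glmS ribozyme variants on sequenced MiSeq chips were transcribed in situ by E. coli RNA polymerase and tracked through a hybridised Cy3 probe at 37 °C. Glucosamine-6-phosphate (40 μM to 10 mM) in HEPES/KCl/Mg(OAc)2 buffer was flowed in, and tiles were imaged over ~14 h. Signals were normalised to baseline and to non-cleaving reference variants; per-tile medians were fit to one- or two-exponential decays to give kobs. kcat and KM came from weighted Michaelis–Menten fits across concentrations.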

glucosamine-6-phosphate [2] = variants of: B1; assay: KM; higher = weaker cofactor use; RNA array
Method in brief: as §1

glucosamine-6-phosphate [3] = variants of: B1; assay: self-cleavage kobs at 160 uM GlcN6P; higher = faster cleavage; RNA array
Method in brief: as §1

glucosamine-6-phosphate [4] = variants of: B1; assay: self-cleavage kobs at 640 uM GlcN6P; higher = faster cleavage; RNA array
Method in brief: as §1

glucosamine-6-phosphate [5] = variants of: B1; assay: self-cleavage kobs at 2500 uM GlcN6P; higher = faster cleavage; RNA array
Method in brief: as §1

glucosamine-6-phosphate [6] = variants of: B1; assay: self-cleavage kobs at 10000 uM GlcN6P; higher = faster cleavage; RNA array
Method in brief: as §1

glucosamine-6-phosphate [7] = variants of: B1; assay: self-cleavage kobs at 40 uM GlcN6P; higher = faster cleavage; RNA array
Method in brief: as §1

Variant | kcat (glucosamine-6-phosphate [1]) [s⁻¹] | KM (glucosamine-6-phosphate [2]) [µM] | self-cleavage kobs at 160 uM GlcN6P (glucosamine-6-phosphate [3]) [s⁻¹] | self-cleavage kobs at 640 uM GlcN6P (glucosamine-6-phosphate [4]) [s⁻¹] | self-cleavage kobs at 2500 uM GlcN6P (glucosamine-6-phosphate [5]) [s⁻¹] | self-cleavage kobs at 10000 uM GlcN6P (glucosamine-6-phosphate [6]) [s⁻¹] | self-cleavage kobs at 40 uM GlcN6P (glucosamine-6-phosphate [7]) [s⁻¹]
AUAAAAGCGCCAGAACUACAGAAAUGUAGUUGACGAGGAGGAGGGUUAUCGAAUUUUCGGCGGAUGCCUCGAAA [U45G C71G] | 0.000564 ± 5.3e-05 | 2510 ± 370 | 3.29e-05 ± 1.3e-05 | 0.000112 ± 1.2e-05 | 0.000322 ± 5.2e-05 | 0.000432 ± 6.3e-05 | –
AUAAAAGCGCCAGAACUACAGAAAUGUAGUUGACGAGGAGGAGGUAUAUCGAAUUUUCGGAGGAUGCCUCCAAA [U46A C61A] | 1.2e-05 ± 3e-07 | 1800 ± 100 | – | – | – | – | –
AUAAAAGCGCCAGAACUACAGAAAUGUAGUUGACGAGGAGGAGGGUUAUCGAAUUUUCGGCGGAUUCCUCCAAA [U45G G66U] | 0.0036 ± 0.00029 | 4540 ± 530 | 0.00012 ± 2.8e-05 | 0.00042 ± 7.6e-05 | 0.0014 ± 0.00027 | 0.00245 ± 0.00032 | 3.62e-05 ± 1.2e-05
AUAAAAGCGCCAGAACUACAGAAAUGUAGUUGACGAGGAGGAGGGUUAUCGAAGUUUCGGCGGAUGCCUCCAAA [U45G U54G] | 0.0116 ± 0.0048 | – | 0.000252 ± 9.5e-05 | 0.00187 ± 0.00046 | 0.00436 ± 0.0015 | 0.0084 ± 0.0012 | 0.000213 ± 3.6e-05
AUAAAAGCGCCAGAACUACAGAAAUGUAGUUGACGAGGAGGAGGGUUAUCGAAUUUUCGGCGGAUGUCUCCAAA [U45G C67U] | 0.00709 ± 0.0025 | 2100 ± 1100 | 0.000462 ± 6.3e-05 | 0.00181 ± 0.00028 | 0.00248 ± 0.00057 | 0.00733 ± 0.00094 | 0.000204 ± 3.5e-05
AUAAAAGCGCCAGAACUACAGAAAUGUAGUUGACGAGGAGGAGGGUUAUCGAAUUUUCGGCGGACGCCUCCAAA [U45G U65C] | 9.08e-05 ± 1.1e-05 | 3060 ± 1100 | – | – | 4.24e-05 ± 1.4e-05 | 6.91e-05 ± 1.3e-05 | –
AUAAAAGCGCCAGAACUACAGAAAUGUAGUUGACGAGGAGGAGGGAUAUCGAAUUUUCGGCGGAUGCCUCCAAA [U45G U46A] | 0.00906 ± 0.0029 | 3870 ± 1700 | 0.000641 ± 0.00023 | 0.000705 ± 0.00032 | – | 0.00686 ± 0.0011 | 0.000106 ± 1.7e-05
